# Experiments:
# BRL1 = target: T1, BRL1 (Arabidopsis thaliana, UniProt Q9ZWC8); experiment: Yeast two-hybrid interaction with BRL1-KD; format: binding
# T1 construct: expressed in transfected cells; host or cells: yeast strain MaV203
# T1 sequence (Q9ZWC8 859-1147 limits assumed): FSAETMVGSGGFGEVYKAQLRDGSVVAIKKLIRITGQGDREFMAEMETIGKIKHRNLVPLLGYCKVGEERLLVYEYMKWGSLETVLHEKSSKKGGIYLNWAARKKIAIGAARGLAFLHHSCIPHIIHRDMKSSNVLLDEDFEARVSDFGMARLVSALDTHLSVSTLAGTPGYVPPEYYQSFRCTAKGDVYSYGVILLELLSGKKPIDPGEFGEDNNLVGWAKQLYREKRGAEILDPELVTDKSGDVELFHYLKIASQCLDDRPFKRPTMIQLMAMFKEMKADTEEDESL
# Experimental: BKI1 fused with GAL4-AD (BKI1-pEXAD502) interacts with the intracellular domain of BRI1 (BRI1-KD), but not CLV1 (CLV1-KD), BRL1 (BRL1-KD), and BRL3 (BRL3-KD), fused with GAL4-DB (in pDBLeu) in yeast. pDBLeu was used as a negative control. Each spot from left to right contains 10 μl yeast cell culture with OD600=0.2, 0.04, 0.008, and 0.0016.
# [1] = target: T2, intracellular domain of BRI1 (BRI1-KD) (Arabidopsis thaliana, UniProt O22476); experiment: Yeast two-hybrid interaction with BRI1-KD; format: binding
# T2 construct: expressed in transfected cells; host or cells: yeast strain MaV203
# T2 sequence (O22476 828-1196): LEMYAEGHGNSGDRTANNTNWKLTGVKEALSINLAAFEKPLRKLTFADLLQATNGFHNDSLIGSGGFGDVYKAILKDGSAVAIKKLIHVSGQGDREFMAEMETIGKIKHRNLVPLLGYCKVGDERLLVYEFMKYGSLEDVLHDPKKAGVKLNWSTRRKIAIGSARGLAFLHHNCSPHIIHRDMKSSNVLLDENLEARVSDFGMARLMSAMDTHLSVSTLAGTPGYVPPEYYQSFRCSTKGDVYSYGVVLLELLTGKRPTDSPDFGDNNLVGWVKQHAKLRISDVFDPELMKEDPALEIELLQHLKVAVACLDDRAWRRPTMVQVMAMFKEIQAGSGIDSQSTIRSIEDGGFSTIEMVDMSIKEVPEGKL
# Experimental: (§1) A ProQuest Two-Hybrid system with Gateway technology (Invitrogen) was used. […] The full-length (BKI1-FL), and various truncated proteins, 1-252 (BKI1-ΔCT1), 1-299 (BKI1-ΔCT2), and 253-337 (BKI1-CT) of BKI1 were cloned into the pEXPAD502 vector. The kinase domain of NIK1 (NIK1-KD) (Fontes et al. (2004) Genes Dev. 18:2545), BAK1 (BAK1-KD), CLV1 (CLV1-KD), BRL1 (BRL1-KD), BRL3 (BRL3-KD), full length TTL, and full-length BIN2 were cloned into the pDBLeu vector. Interactions were tested on SD medium minus Leu, Trp, and His, and containing 25 mM 3-Amino-1,2,4-Triazole (3AT), using the yeast strain MaV203 according to the manufacturer's manual.
# BRI1 kinase = target: T3, BRI1 kinase (Arabidopsis thaliana, UniProt O22476); experiment: In vitro phosphorylation of MBP-BKI1 by BRI1 kinase; format: biochemical; details: MBP-BKI1, BRI1-KD-HIS, 200 μM ATP; read-out: Km as substrate of BRI1 kinase in vitro
# T3 construct: The intracellular domain of BRI1(BRI1-KD) was cloned into pETBlue2 (Novagen) with a C-terminal His tag; made in house; host or cells: E. coli BL21 (DE3) Codon plus RIL
# T3 sequence (O22476 883-1158 limits assumed): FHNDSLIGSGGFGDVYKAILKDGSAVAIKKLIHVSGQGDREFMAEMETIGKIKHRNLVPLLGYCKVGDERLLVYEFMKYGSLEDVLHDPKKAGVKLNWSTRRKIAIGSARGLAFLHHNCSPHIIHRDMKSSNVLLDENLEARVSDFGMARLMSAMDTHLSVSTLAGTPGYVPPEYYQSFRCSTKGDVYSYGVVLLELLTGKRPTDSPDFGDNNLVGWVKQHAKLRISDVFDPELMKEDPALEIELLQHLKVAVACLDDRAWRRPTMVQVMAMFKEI
# Experimental: The intracellular domain of BRI1(BRI1-KD) was cloned into pETBlue2 (Novagen) with a C-terminal His tag. BKI1 was cloned into the pMAL-2cX vector (New England Biolabs) resulting in an Nterminal maltose-binding protein (MBP) fusion. BRI1-KD-HIS and MBP-BKI1 fusion proteins were expressed in BL21 (DE3) Codon plus RIL (Stratagene) and purified with Ni-NTA agarose (Qiagen) and […] (New England Biolabs), respectively. For the phosphorylation assays, each reaction contained 50 mM HEPES [pH7.4], 10 mM MgCl2, 10 mM MnCl2, 1 mM DTT, 200 μM ATP, 1 μl (10 μCi) [γ-32P] ATP, 0.5 μl of BRI1-His, different amounts of MBP-BKI1, and double deionized H2O in a final volume of 24 μl. Reactions were terminated by addition of 8 μl of 4×SDS loading buffer. Samples were separated on a 4-20% Tris-Glycine SDS-PAGE gel (Invitrogen), which was then stained, destained, dried, and visualized and quantified using a PhosphorImager. The kinetic analysis of the phosphorylation of MBP-BKI1 by BRI1 kinase was conducted with a GraphPad Prism 4 (http://www.graphpad.com/prism/Prism.htm). […] The BKI1-FLAG protein was detected by immunoblot analysis with anti-FLAG antibody.
# TTL = target: T4, TTL (Arabidopsis thaliana, UniProt Q9LVM5); experiment: Yeast two-hybrid interaction with TTL; format: binding
# T4 construct: full length TTL, and full-length BIN2 were cloned into the pDBLeu vector; expressed in transfected cells; host or cells: yeast strain MaV203
# T4 sequence (Q9LVM5 1-324): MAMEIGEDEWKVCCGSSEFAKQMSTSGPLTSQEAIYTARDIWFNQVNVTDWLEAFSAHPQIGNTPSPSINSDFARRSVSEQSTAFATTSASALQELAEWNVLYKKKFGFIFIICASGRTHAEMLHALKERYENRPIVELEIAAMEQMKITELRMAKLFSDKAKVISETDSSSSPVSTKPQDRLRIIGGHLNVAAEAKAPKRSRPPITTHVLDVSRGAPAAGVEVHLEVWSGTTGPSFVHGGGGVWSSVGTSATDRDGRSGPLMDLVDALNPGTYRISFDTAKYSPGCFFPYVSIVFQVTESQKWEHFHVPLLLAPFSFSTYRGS
# Experimental: as §1
molecule,measurement,setting,value
"BKI1: BRI1-interacting protein of 337 amino acids, negative regulator of brassinosteroid signaling (SEQ ID NO:1) (protein, listed as Arabidopsis thaliana) METNLQQVKNSSQTFSEKQNPKQEASPSPISSTCSSPSHDFSFTISLQPLSSSSKHISPTLRSPSKTTSSYQQTDPFAVDLSPADEIFFHGHLLPLHLLSHLPVSPRTSTGSYNDGFTLPVKDILPDQPTNNNNNTENAITNISTEAKDDNTEDKAEGEIRVKTKPIKSFSLFGLSKWRKGFESNEREQEQQQQKIKKPMSLDLSHAVKKYIRMLFQKRGNGTQFWNRRQTSSYSFSSSLMGPNGNSKTMINGSYNKRDLIRGRRGELFSAPASMRTSPTNSGHLRVSTAGLSSSSGSTSSSSSDSTMEELQAAIQAAIAHCKNSSAVDRDDKVKDS",interaction with kinase domain of BRL1 in yeast,BRL1,does not interact
same,interaction with kinase domain of BRI1 in yeast,[1],associated specifically
same,Km,BRI1 kinase,~1.55 µM
same,interaction with TTL in yeast,TTL,not

# From US8008542B2, “Compositions, cells, and plants that include BKI1, a negative regulator of BRI1-mediated BR signaling” (The Salk Institute for Biological Studies, priority 2007, dated 2011)
